Test results: patent publication US20190091326A1

Legend:
Bal.01 V1/V2 wt (293) = experiment: ELISA; table row Bal.01 V1/V2 wt, column 293
[1] = target: A244 V1/V2 scaffold, wildtype (unmutated), Strep-tag/6x Histidine-tag, expressed in GnTI- cells (HIV-1 isolate A244); experiment: SPR (Biacore 3000), PG9 captured on anti-human Fc, scaffold flowed, 1:1 Langmuir fit
[2] = target: ZM233 V1/V2 scaffold, engineered, Strep-tag/6x Histidine-tag, expressed in normal 293 cells (HIV-1 isolate ZM233); experiment: as above
[3] = target: A244 V1/V2 scaffold, engineered, Strep-tag/6x Histidine-tag, produced in normal 293 cells (HIV-1 isolate A244); experiment: as above
[4] = target: 108060 I169K/E172V/T161M/N156I/S164P/L165G V1/V2 scaffold, gD-tagged, produced in normal 293 HEK (293F) cells (herpes simplex virus 1; HIV-1 isolate 108060); experiment: capture ELISA on 34.1 anti-gD; purified scaffold made in 293F cells
[5] = target: ZM233 V1/V2 scaffold, engineered, gD-tagged, produced in normal 293 HEK cells (herpes simplex virus 1; HIV-1 isolate ZM233); experiment: capture ELISA on 34.1 anti-gD; scaffold made in 293F cells
[6] = target: 108060 I169K/E172V/T161M/N156I/S164G/D167G V1/V2 scaffold, gD-tagged, produced in normal 293 HEK cells (herpes simplex virus 1; HIV-1 isolate 108060); experiment: ELISA; table row 108060 V1/V2.eng1*, column 293
[7] = target: ZM233 V1/V2 scaffold, wildtype, gD-tagged, produced in GnTI- 293 HEK cells (herpes simplex virus 1; HIV-1 isolate ZM233); experiment: capture ELISA on 34.1 anti-gD; scaffold in medium of GnTI- cells
[8] = target: ZM233 V1/V2 scaffold, wildtype, gD-tagged, produced in normal 293 HEK cells (herpes simplex virus 1; HIV-1 isolate ZM233); experiment: capture ELISA on 34.1 anti-gD; scaffold made in normal 293 cells
[9] = target: 108060 I169K/E172V/T161M/N156I/S164P/L165G V1/V2 scaffold, gD-tagged, produced in GnTI- 293 HEK cells (herpes simplex virus 1; HIV-1 isolate 108060); experiment: ELISA; table row 108060 V1/V2.eng2**, GnTI-
[10] = target: A244 V1/V2 scaffold, wildtype, gD-tagged, produced in GnTI- 293 HEK cells (herpes simplex virus 1; HIV-1 isolate A244) (UniProt Q69091); experiment: ELISA; table row A244 V1/V2 wt, GnTI-
CAP.45 V1/V2 wt (GnTI-) = experiment: ELISA; table row CAP.45 V1/V2 wt, GnTI-
[11] = target: 108060 I169K/E172V/T161M/N156I/S164G/D167G V1/V2 scaffold, gD-tagged, produced in normal 293 HEK cells (herpes simplex virus 1; HIV-1 isolate 108060); experiment: capture ELISA on 34.1 anti-gD; purified scaffold made in 293 cells
[12] = target: A244 V1/V2 scaffold, engineered, gD-tagged, produced in normal 293 HEK cells (herpes simplex virus 1; HIV-1 isolate A244) (UniProt Q69091); experiment: as above
[13] = target: JRFL-E168K V1/V2 scaffold, engineered, gD-tagged, produced in normal 293 HEK cells (herpes simplex virus 1; HIV-1 isolate JRFL); experiment: as above
[14] = target: ZM233 V1/V2 scaffold, engineered, gD-tagged, produced in normal 293 HEK cells (herpes simplex virus 1; HIV-1 isolate ZM233); experiment: as above
[15] = target: MN V1/V2 scaffold, engineered, gD-tagged, produced in normal 293 HEK cells (herpes simplex virus 1; HIV-1 isolate MN); experiment: as above
ZM197 V1/V2 wt (GnTI-) = experiment: ELISA; table row ZM197 V1/V2 wt, GnTI-
[16] = target: MN V1/V2 scaffold, wildtype, gD-tagged, produced in GnTI- 293 HEK cells (herpes simplex virus 1; HIV-1 isolate MN) (UniProt Q69091); experiment: ELISA; table row MN V1/V2 wt, GnTI-
ZM233 mutant + N156 = experiment: ELISA, PG9 titrated, absorbance 490 nm
ZM233 mutant - N156 = experiment: ELISA, PG9 titrated, absorbance 490 nm
[17] = target: ZM233 V1/V2 scaffold, engineered, gD-tagged, produced in GnTI- 293 HEK cells (herpes simplex virus 1; HIV-1 isolate ZM233); experiment: capture ELISA on 34.1 anti-gD; scaffold made in GnTI- cells
[18] = target: 108060 I169K/E172V/T161M/N156I V1/V2 scaffold, gD-tagged, produced in GnTI- 293 HEK cells (herpes simplex virus 1; HIV-1 isolate 108060); experiment: ELISA; table row 108060 I169K/E172V/T161M/N156I, GnTI-
[19] = target: A244 V1/V2 scaffold, wildtype (unmutated), Strep-tag/6x Histidine-tag, expressed in GnTI- cells (HIV-1 isolate A244); experiment: SPR (Biacore 3000), PG9 captured by anti-human Fc, scaffold flowed
[20] = target: A244 V1/V2 scaffold, engineered, Strep-tag/6x Histidine-tag, produced in normal 293 cells (HIV-1 isolate A244); experiment: as above

PG9 monoclonal antibody
EC50 (Bal.01 V1/V2 wt (293)): 0.853 µg/mL | kon [1]: 53000 M⁻¹ s⁻¹ | koff [2]: 0.0023 s⁻¹ | kon [2]: 40000 M⁻¹ s⁻¹ | kon [3]: 40000 M⁻¹ s⁻¹ | EC50 [4]: 0.156 µg/mL | EC50 [5]: 0.002 µg/mL | EC50 [6]: 0.093 µg/mL | EC50 [7]: 0.0095 µg/mL | EC50 [8]: 0.0771 µg/mL | EC50 [9]: 0.00834 µg/mL | EC50 [10]: 0.000741 µg/mL | EC50 (CAP.45 V1/V2 wt (GnTI-)): 0.0527 µg/mL | EC50 [11]: 0.093 µg/mL | EC50 [12]: 0.0991 µg/mL | EC50 [13]: 0.0473 µg/mL | EC50 [14]: 0.00227 µg/mL | EC50 [15]: 0.0274 µg/mL | EC50 (ZM197 V1/V2 wt (GnTI-)): 0.0303 µg/mL | EC50 [16]: > 10 µg/mL | EC50 (read off the curve) (ZM233 mutant + N156): 0.1 µg/mL | EC50 (read off the curve) (ZM233 mutant - N156): 0.03 µg/mL | EC50 [17]: 0.01 µg/mL | EC50 [18]: 0.0281 µg/mL | koff [19]: 0.00077 s⁻¹ | koff [20]: 0.0019 s⁻¹
